Measurements reported in patent publication US20170129954A1 (PROTHENA BIOSCIENCES, published 2017).
Residue numbers refer to the chain shown, from its start.

How the values were obtained:
[1] = target: T1, human MCAM domain 1 (amino acids 19-129) hFc (human, UniProt P43121 19-129); experiment: ForteBio BLI, MCAMhFc domains on anti-human IgG Fc biosensors
T1 construct: One of the various MCAMhFc domains captured on anti-human IgG Fc biosensors; also called MCAMhFc domain; not shown: human IgG Fc (hFc)
T1 sequence: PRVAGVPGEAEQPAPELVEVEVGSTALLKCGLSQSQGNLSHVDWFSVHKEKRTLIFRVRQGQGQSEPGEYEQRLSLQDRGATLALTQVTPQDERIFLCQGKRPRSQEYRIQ
Description: (§1) The following protocol was used: ForteBio anti-human IgG Fc biosensors were used to immobilize various MCAMhFc domains including full length MCAMhFc protein on to biosensor surface. […] After loading these samples into a black 96 well plate, the Octet Red was programmed as follows: 60 seconds for baseline #1; 180 seconds for loading various domains; 60 seconds for baseline #2; 180 seconds for association of antibody to domain; and 240 seconds for dissociation of antibody from domain.
(§2) 1. MCAMhFc final concentration @ 5 ug/ml [0329] […] 3. ForteBio anti-human IgG Fc Capture (AHC) biosensors for kinetics experiments, cat #18-5060 [0331] 4. Block 96 well plate from Greiner Bio-one, cat #655209 [0332] 5. ForteBio Octet Red machine [0333] 6. Fresh tissue culture medium, DMEM with 20% FCS, was used as buffer for dilution The results from these analyses are as follows.

[2] = target: T2, human MCAM domain 2 (amino acids 139-242) hFc (human, UniProt P43121 139-242); experiment: as above
T2 construct: One of the various MCAMhFc domains captured on anti-human IgG Fc biosensors; also called MCAMhFc domain; not shown: human IgG Fc (hFc)
T2 sequence: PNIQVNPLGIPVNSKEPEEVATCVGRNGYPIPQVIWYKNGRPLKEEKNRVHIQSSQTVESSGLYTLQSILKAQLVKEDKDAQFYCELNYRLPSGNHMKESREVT
Description: as §1, §2

[3] = target: T3, combination of human MCAM domains 1 and 2 (amino acids 19-242) hFc (human, UniProt P43121 19-242); experiment: as above
T3 construct: One of the various MCAMhFc domains captured on anti-human IgG Fc biosensors; also called combination of domains 1 and 2; MCAMhFc domain; not shown: human IgG Fc (hFc)
T3 sequence: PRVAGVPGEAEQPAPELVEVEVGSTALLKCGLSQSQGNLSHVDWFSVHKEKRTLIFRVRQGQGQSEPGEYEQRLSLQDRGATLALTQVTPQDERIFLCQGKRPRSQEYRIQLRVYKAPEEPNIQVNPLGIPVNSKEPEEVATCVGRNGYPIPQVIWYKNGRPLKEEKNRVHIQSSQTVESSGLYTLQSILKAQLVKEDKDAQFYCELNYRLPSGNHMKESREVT
Description: as §1, §2

[4] = target: T4, MCAM Y318A mutant, purified protein from a stable cell line (human, UniProt P43121 24-559, limits assumed); experiment: ForteBio BLI with purified protein
T4 chain: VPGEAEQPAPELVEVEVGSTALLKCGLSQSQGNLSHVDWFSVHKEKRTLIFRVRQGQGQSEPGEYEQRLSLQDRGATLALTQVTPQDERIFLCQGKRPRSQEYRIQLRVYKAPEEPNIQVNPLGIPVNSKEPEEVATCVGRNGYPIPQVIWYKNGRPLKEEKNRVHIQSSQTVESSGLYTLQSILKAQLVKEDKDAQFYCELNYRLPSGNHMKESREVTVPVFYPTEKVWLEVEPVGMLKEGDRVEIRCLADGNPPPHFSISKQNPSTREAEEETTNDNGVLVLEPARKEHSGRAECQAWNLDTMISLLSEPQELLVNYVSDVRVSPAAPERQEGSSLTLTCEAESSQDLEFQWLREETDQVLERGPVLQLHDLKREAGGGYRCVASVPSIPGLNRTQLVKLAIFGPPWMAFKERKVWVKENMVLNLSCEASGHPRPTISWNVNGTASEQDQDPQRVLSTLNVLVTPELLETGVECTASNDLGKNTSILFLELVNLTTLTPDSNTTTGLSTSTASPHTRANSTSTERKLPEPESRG
Description: To further confirm the data, stable cell lines expressing I141A, P145V, D216A and Y318A respectively were generated. Fortebio assays were performed with the purified proteins as described above. The control ABX-MA1 antibody bound to wild type MCAM and the MCAM mutants.

[5] = target: T5, human MCAM (antigen of the BLI kinetics in Example 7) (human, UniProt P43121 24-559, limits assumed); experiment: BLI, ForteBio Octet QK, apparent KD
T5 chain: T4 chain with A295Y
Description: Apparent ka, apparent kd and apparent KD are binding kinetic parameters obtained using ForteBio assay formats.

binding result [1]: no binding (tested: 5 ug/ml) | binding result [2]: no binding (tested: 5 ug/ml) | binding result [3]: no binding (tested: 5 ug/ml) | binding result [4]: no binding | Kd [5]: 286 pM
B1: mouse anti-human MCAM monoclonal antibody clone 1749.1.3 (antibody, V domains shown)
VH: DVKLVESGGDLVKPGGSLKLSCAASGFTFSSYIMSWVRQTPEKRLEWVATISSGGSSTYYPDSVKGRFTISRDNAKNTLYLQMSSLKSEDTAMYYCTRDDDYDVKVFAYWGQGTLVTVSA
VL: DIVMSQSPSSLAVSAGEKVTMNCKSSRSLLNSRIRKNYLAWYQQKPGQSPKLLIYWASTRESGVPDRFTGSGSGTDFTLTISSVQAEDLAVYYCKQSYNLLTFGAGTKLELK
notes: Mouse hybridoma monoclonal antibody; also called m1749
